This note sets out measurements from patent US20260250410A1 (SICHUAN HUIYU PHARMACEUTICAL, published 2026).

One experiment concerns the target T1, HuCDCP1-C (human, UniProt Q9H5V8 30-667).
T1 construct: range 30-667; expressed in HEK-293T, purified by Fc/his tag; also called human CDCP1-C; full-length extracellular domain of human CDCP1; not shown: Fc or his tag
T1 sequence (looked up): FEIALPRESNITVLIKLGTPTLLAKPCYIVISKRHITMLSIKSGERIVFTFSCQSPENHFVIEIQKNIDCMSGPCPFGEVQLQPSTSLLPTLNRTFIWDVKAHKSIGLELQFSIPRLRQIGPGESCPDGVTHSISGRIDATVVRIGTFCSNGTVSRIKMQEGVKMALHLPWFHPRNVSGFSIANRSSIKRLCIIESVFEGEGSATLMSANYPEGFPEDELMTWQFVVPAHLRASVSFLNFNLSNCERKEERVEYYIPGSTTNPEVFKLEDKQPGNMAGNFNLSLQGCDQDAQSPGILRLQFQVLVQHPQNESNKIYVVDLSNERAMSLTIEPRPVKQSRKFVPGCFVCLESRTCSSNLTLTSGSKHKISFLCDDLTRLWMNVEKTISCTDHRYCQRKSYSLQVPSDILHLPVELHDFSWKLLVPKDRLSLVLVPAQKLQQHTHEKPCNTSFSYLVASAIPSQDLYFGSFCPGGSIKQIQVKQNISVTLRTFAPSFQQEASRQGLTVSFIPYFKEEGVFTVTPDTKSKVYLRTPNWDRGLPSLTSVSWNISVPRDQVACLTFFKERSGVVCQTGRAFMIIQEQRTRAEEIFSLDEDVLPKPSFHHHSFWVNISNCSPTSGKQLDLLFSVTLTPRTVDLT
The experiment is described as follows: SPR (Caterra), antigen immobilized. The procedure:
The humanized anti-CDCP1 antibodies obtained from Example 11 were subjected to gene cloning, constructed into pTT5 expression vector for a small amount of expression in CHO cells (Expi-CHOS: Gibco A29127), and purified with an Fc affinity column (AT Protein A Diamond Plus. No. AA402312). Antibody purity was analyzed by HPLC and determined by Nanodrop. High-throughput affinity assay was carried out for a small amount of antibodies by Caterra.

For experiment [1], the target named is T2, human CDCP1 on tumor cells (human, UniProt Q9H5V8 30-836).
T2 construct: whole, on cells; cell line is named under assay or readout
T2 sequence (looked up): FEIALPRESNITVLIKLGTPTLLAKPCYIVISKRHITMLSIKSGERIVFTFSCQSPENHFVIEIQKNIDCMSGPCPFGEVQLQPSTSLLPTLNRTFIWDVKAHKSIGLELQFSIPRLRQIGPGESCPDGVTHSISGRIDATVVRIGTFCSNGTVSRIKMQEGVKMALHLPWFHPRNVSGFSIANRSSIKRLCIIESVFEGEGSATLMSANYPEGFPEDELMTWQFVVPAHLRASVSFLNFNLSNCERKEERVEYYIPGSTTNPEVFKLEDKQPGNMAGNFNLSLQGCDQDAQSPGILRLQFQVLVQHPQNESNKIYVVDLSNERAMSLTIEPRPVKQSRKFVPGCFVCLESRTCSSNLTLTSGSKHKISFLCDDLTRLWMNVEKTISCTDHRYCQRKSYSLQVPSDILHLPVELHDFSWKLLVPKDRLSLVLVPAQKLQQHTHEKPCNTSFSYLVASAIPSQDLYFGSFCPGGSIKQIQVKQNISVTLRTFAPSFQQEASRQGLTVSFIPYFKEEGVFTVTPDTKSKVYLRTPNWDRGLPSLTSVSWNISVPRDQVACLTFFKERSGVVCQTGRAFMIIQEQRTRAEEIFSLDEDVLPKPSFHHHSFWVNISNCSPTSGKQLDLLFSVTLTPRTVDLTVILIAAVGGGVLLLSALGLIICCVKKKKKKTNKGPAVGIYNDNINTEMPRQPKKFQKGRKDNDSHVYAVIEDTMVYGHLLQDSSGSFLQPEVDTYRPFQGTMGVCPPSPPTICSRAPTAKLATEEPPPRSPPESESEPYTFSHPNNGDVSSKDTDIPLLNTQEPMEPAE
In words: flow cytometry, MDA-MB-231 cells. As for the experimental part:
Referring to the method of Example 4, MDA-MB-231 cells were taken and subjected to digestion with 5 mM EDTA, 2×10⁴ tumor cells were added respectively per well, and 50 μL (PBS+2% FBS) were added; after blocking at room temperature with Fc blocker for 10 mins, an anti-CDCP1 humanized antibody at a final concentration of 200 nM was added. The obtained mixture was subjected to a 3-fold serial dilution across 8 concentration points, incubated at 4° C. for 30 mins, centrifuged and washed, and then a secondary antibody (PE anti-human IgG Fc Antibody, Biolegend, 410708) was added, then detection was performed using a flow cytometer. Geo-MFI (geometric mean fluorescence signal value) was used as the preliminary signal of antibody-cell binding, curve fitting was performed using graphpad, and the binding capacity of antibody to cells was calculated.
On the technique in general: Flow cytometry measures light scatter and fluorescence of single cells or particles in a stream.

B1: 1CP-124 (antibody, human IgG1, kappa, V domains shown)
VH: QVQLVQSGAEVKKPGASVKVSCKASGYNFISYWLHWVRQAPGQGLEWMGGIYPGNTDTTYNQKFKGRVTMTRDTSTSTVYMELSSLRSEDTAVYYCIRYDYDRGMDYWGQGTLVTVSS
VL: DIQMTQSPSSLSASVGDRVTITCRASEDIYYRLAWYQQKPGKAPKLLISGATALETGVPSRFSGSGSGKDYTFTISSLQPEDIATYYCQHYWNIPWTFGQGTKVEIKR
notes: humanized 3C11, human IgG1 kappa
The Kd is the equilibrium constant for the complex coming apart. The term koff denotes a measure of how fast the partners let go of each other. What is called kon is a measure of how fast the partners come together. A high value points to fast association. What is called EC50 is the concentration giving half of the maximal effect. Lower therefore signals greater potency. In the experiment with HuCDCP1-C, B1 had a Kd of 0.0993 nM, a dissociation rate constant (koff) of 1.47e-05 s⁻¹ and a kon of 148000 M⁻¹ s⁻¹. Moreover, in experiment [1], the EC50 was 0.38 nM.

B2: 1CP-129 (antibody, human IgG1, kappa, V domains shown)
VH: QVQLVQSGAEVKKPGASVKVSCKASGYNFISYWLHWVRQAPGQGLEWMGGIYPGNTDTTYNQKFKGRVTMTADTSTSTVYMELSSLRSEDTAVYYCIRYDYDRGMDYWGQGTLVTVSS
VL: DIQMTQSPSSLSASVGDRVTITCRASEDIYYRLAWYQQKPGKAPKLLISGATALETGVPSRFSGSGSGKDYTLTISSLQPEDIATYYCQHYWNIPWTFGQGTKVEIKR
notes: as for B1
On to B2, for which, in the experiment with HuCDCP1-C, the dissociation constant Kd is at most 0.0623 nM, the koff was at most 1e-05 s⁻¹ and the kon stood at 160000 M⁻¹ s⁻¹. Further, the EC50 in experiment [1] worked out at 0.34 nM.

B3: 1CP-125 (antibody, human IgG1, kappa, V domains shown)
VH: QVQLVQSGAEVKKPGASVKVSCKASGYNFISYWLHWVRQAPGQGLEWMGGIYPGNTDTTYNQKFKGRVTMTADTSTSTVYMELSSLRSEDTAVYYCIRYDYDRGMDYWGQGTLVTVSS
VL: DIQMTQSPSSLSASVGDRVTITCRASEDIYYRLAWYQQKPGKAPKLLISGATALETGVPSRFSGSGSGKDYTFTISSLQPEDIATYYCQHYWNIPWTFGQGTKVEIKR
notes: as for B1
In the experiment with HuCDCP1-C, B3 showed a Kd of 0.144 nM, a koff of 2.17e-05 s⁻¹ and a kon of 151000 M⁻¹ s⁻¹. Besides, in experiment [1], the 50% effective concentration (EC50) was 0.95 nM.

B4: 1CP-128 (antibody, human IgG1, kappa, V domains shown)
VH: QVQLVQSGAEVKKPGASVKVSCKASGYNFISYWLHWVRQAPGQGLEWMGGIYPGNTDTTYNQKFKGRVTMTRDTSTSTVYMELSSLRSEDTAVYYCIRYDYDRGMDYWGQGTLVTVSS
VL: DIQMTQSPSSLSASVGDRVTITCRASEDIYYRLAWYQQKPGKAPKLLISGATALETGVPSRFSGSGSGKDYTLTISSLQPEDIATYYCQHYWNIPWTFGQGTKVEIKR
notes: as for B1
Turning to B4, in the experiment with HuCDCP1-C, the Kd was at most 0.0717 nM, the koff was at most 1e-05 s⁻¹ and the on-rate (kon) came out at 139000 M⁻¹ s⁻¹. This molecule also gave an EC50 in experiment [1] of 0.32 nM.

B5: 1CP-152 (antibody, human IgG1, kappa, V domains shown)
VH: EVQLVESGGGLVQPGRSLRLSCTTSGLTFTHYHMSWVRQAPGKGLEWVAIIRNKAYGYTTDYSASVRGRFTISRDDSKSILYLQMNSLKTEDTAVYYCVREGGYGYDGTFAYWGQGTLVTVSS
VL: DIQMTQSPSSLSASVGDRVTITCRASESVDNYGISFMNWFQQKPGQAPKLLIYAASNQGSGVPSRFSGSGSGTDFTLTISSMQPEDFATYYCQQSKEVPRTFGGGTKVEIKR
notes: humanized 8C9, human IgG1 kappa
B5: in the experiment with HuCDCP1-C, the Kd was 4.09 nM, the off-rate constant (koff) was found to be 0.000465 s⁻¹ and the on-rate (kon) came to 114000 M⁻¹ s⁻¹. Moreover, the midpoint of the response in experiment [1], the EC50, lay at 2.82 nM.

B6: 1CP-157 (antibody, human IgG1, kappa, V domains shown)
VH: EVQLVESGGGLVQPGRSLRLSCTTSGLTFTHYHMSWVRQAPGKGPEWVAIIRNKAYGYTTDYSASVRGRFTISRDDSKSILYLQMNSLKTEDTAVYYCVREGGYGYDGTFAYWGQGTLVTVSS
VL: DIQMTQSPSSLSASVGDRVTITCRASESVDNYGISFMNWFQQKPGQPPKLLIYAASNQGSGVPSRFSGSGSGTDFTLTISSMQPEDFATYYCQQSKEVPRTFGGGTKVEIKR
notes: as for B5
In the experiment with HuCDCP1-C, B6 registered a dissociation constant Kd of 3.14 nM, an off-rate (koff) of 0.000385 s⁻¹ and an on-rate constant (kon) of 122000 M⁻¹ s⁻¹. This molecule also showed an EC50 in experiment [1] of 2.5 nM.
